According to patent US5362852A, “Modified peptide derivatives conjugated at 2-hydroxyethylamine moieties” (Pfizer Inc., priority 1991, dated 1994):
Each block holds one molecule with its values, some of them ahead of it.

Experiments:
human CRF receptor = target: T1, human CRF receptor (Homo sapiens, UniProt P34998); experiment: ability to bind to the human CRF receptor (prepared from cultured SK-N-SH cells); type: binding; conditions: products dissolved in 0.05M sodium phosphate, pH 7.0
T1 construct: human CRF receptor (prepared from cultured SK-N-SH cells); endogenous in cells; host or cells: SK-N-SH cells (human neuroblastoma), receptor preparation
T1 sequence (P34998 24-415): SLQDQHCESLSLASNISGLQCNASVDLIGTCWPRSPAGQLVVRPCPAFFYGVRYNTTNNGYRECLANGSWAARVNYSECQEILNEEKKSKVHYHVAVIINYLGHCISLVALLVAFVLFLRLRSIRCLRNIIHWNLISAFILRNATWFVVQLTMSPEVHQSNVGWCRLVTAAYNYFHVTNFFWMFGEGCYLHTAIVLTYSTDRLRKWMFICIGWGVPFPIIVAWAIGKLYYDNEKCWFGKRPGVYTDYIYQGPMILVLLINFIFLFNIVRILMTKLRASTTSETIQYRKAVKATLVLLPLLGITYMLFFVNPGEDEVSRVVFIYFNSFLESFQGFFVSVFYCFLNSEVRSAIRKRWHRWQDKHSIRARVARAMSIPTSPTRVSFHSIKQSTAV
Description: The products were dissolved in 0.05M sodium phosphate, pH 7.0, and tested for their ability to bind to the human CRF receptor (prepared from cultured SK-N-SH cells).

[1] = target: human CRF receptor (human); experiment: receptor binding assay on human CRF receptor prepared from cultured SK-N-SH cells

IC50 (human CRF receptor): 5 nM
Molecule: CC[C@H](C)[C@H](NC(=O)[C@H](CC(=O)O)NC(=O)[C@H](CC(C)C)NC(=O)[C@H](CC(C)C)NC(=O)[C@H](CCCCN)NC(=O)[C@H](CCCNC(=N)N)NC(=O)[C@H](CC(N)=O)NC(=O)[C@H](CO)NC(=O)[C@H](Cc1c[nH]cn1)NC(=O)[C@H](C)NC(=O)[C@H](CCC(N)=O)NC(=O)[C@H](CCC(N)=O)NC(=O)[C@H](C)NC(=O)[C@H](CC(C)C)NC(=O)[C@H](CCC(N)=O)NC(=O)[C@H](CC(=O)O)NC(=O)[C@H](C)NC(=O)[C@H](CCCCN)NC(=O)[C@@H](NC(=O)[C@H](CC[S+](C)[O-])NC(=O)[C@H](CCC(=O)O)NC(=O)[C@H](CC(C)C)NC(=O)[C@@H](NC(=O)[C@H](CCC(=O)O)NC(=O)[C@H](CCCNC(=N)N)NC(=O)[C@H](CC(C)C)NC(=O)[C@H](CC(C)C)NC(=O)[C@H](Cc1c[nH]cn1)NC(=O)[C@H](Cc1ccccc1)NC(=O)[C@@H](NC(=O)[C@H](CC(C)C)NC(=O)[C@H](CC(=O)O)NC(=O)[C@H](CC(C)C)NC(=O)[C@H](CO)NC(=O)[C@@H](NC(=O)[C@@H]1CCCN1C(=O)[C@@H]1CCCN1C(=O)[C@H](CCC(=O)O)NC(=O)[C@H](CCC(N)=O)NC(=O)[C@@H](N)CO)[C@@H](C)CC)[C@@H](C)O)C(C)C)[C@@H](C)O)C(=O)N[C@@H](C)C(N)=O (stereo partly shown) [CRF [Met^21 O]]

IC50 [1]: 5 nM
Molecule: underivatized CRF [Met^21 O]

IC50 [1]: 5 nM
B1: N-terminally biotinylated ovine CRF [Met^21 O] (peptide)
peptide: SQEPPISLDLTFHLLREVLEXTKADQLAQQAHSNRKLLDIA
modifications: N-terminal Ser oxidised by periodate to glyoxylyl (=CH-CO-) and coupled as hydrazone to 6-((biotinoyl)amino)caproic acid hydrazide (biotin-X-hydrazide); Met 21 as the sulfoxide (Met^21 O)

IC50 [1]: 5 nM
B2: Lucifer Yellow conjugate of ovine CRF [Met^21 O] (peptide)
peptide: B1 peptide
modifications: N-terminal Ser oxidised by periodate to glyoxylyl (=CH-CO-) and coupled as hydrazone to Lucifer Yellow; Met 21 as the sulfoxide (Met^21 O)
